Measurements from paper PMC5816542, “In vitro and in vivo characterization of three Cellvibrio japonicus glycoside hydrolase family 5 members reveals potent xyloglucan backbone-cleaving functions” (Biotechnology for Biofuels, 2018).

Legend:
CjGH5D = molecular target: T1, CjGH5D (Cellvibrio japonicus, UniProt B3PD52); experiment: time-dependent inactivation, residual XXXG-CNP hydrolysis at […] nm; format: biochemical; settings: covalent; irreversible active-site affinity label; 20 mM phosphate pH 7.5, 40 °C, 0.1 mg/mL BSA; XXXG-CNP substrate
T1 construct: gene cel5D; GH5_4 catalytic module, lipoprotein signal peptide and serine-rich linker removed; N-terminal His6 (pET28a), E. coli; borders 96-468 are those of the crystal model

purified protein [1] = substrate: O=[N+]([O-])c1ccc(O[C@@H]2O[C@H](CO)[C@@H](O[C@@H]3O[C@H](CO[C@H]4OC[C@@H](O)[C@H](O)[C@H]4O)[C@@H](O[C@@H]4O[C@H](CO[C@H]5OC[C@@H](O)[C@H](O)[C@H]5O)[C@@H](O[C@@H]5O[C@H](CO[C@H]6OC[C@@H](O)[C@H](O)[C@H]6O)[C@@H](O)[C@H](O)[C@H]5O)[C@H](O)[C@H]4O)[C@H](O)[C@H]3O)[C@H](O)[C@H]2O)c(Cl)c1; experiment: purified protein; format: biochemical, Cellvibrio japonicus
purified protein [2] = substrate: O=[N+]([O-])c1ccc(O[C@@H]2O[C@H](CO)[C@@H](O[C@@H]3O[C@H](CO[C@H]4OC[C@@H](O)[C@H](O)[C@H]4O[C@@H]4O[C@H](CO)[C@H](O)[C@H](O)[C@H]4O)[C@@H](O[C@@H]4O[C@H](CO[C@H]5OC[C@@H](O)[C@H](O)[C@H]5O[C@@H]5O[C@H](CO)[C@H](O)[C@H](O)[C@H]5O)[C@@H](O[C@@H]5O[C@H](CO[C@H]6OC[C@@H](O)[C@H](O)[C@H]6O)[C@@H](O)[C@H](O)[C@H]5O)[C@H](O)[C@H]4O)[C@H](O)[C@H]3O)[C@H](O)[C@H]2O)c(Cl)c1; experiment: purified protein; format: biochemical, Cellvibrio japonicus
purified protein [3] = substrate: O=[N+]([O-])c1ccc(O[C@@H]2O[C@H](CO)[C@@H](O[C@@H]3O[C@H](CO)[C@@H](O[C@@H]4O[C@H](CO)[C@@H](O[C@@H]5O[C@H](CO)[C@@H](O)[C@H](O)[C@H]5O)[C@H](O)[C@H]4O)[C@H](O)[C@H]3O)[C@H](O)[C@H]2O)c(Cl)c1; experiment: purified protein; format: biochemical, Cellvibrio japonicus; settings: 50 mM phosphate pH 7.5, 55 °C
purified protein [4] = substrate: O=[N+]([O-])c1ccc(O[C@@H]2O[C@H](CO)[C@@H](O[C@@H]3O[C@H](CO)[C@@H](O[C@@H]4O[C@H](CO)[C@@H](O)[C@H](O)[C@H]4O)[C@H](O)[C@H]3O)[C@H](O)[C@H]2O)c(Cl)c1; experiment: purified protein; format: biochemical, Cellvibrio japonicus; settings: 50 mM phosphate pH 7.5, 55 °C

How did the KI (inactivation) (CjGH5D) turn out when `O=C(CBr)N[C@@H]1O[C@H](CO)[C@@H](O[C@@H]2O[C@H](CO[C@H]3OC[C@@H](O)[C@H](O)[C@H]3O)[C@@H](O[C@@H]3O[C@H](CO[C@H]4OC[C@@H](O)[C@H](O)[C@H]4O)[C@@H](O[C@@H]4O[C@H](CO[C@H]5OC[C@@H](O)[C@H](O)[C@H]5O)[C@@H](O)[C@H](O)[C@H]4O)[C@H](O)[C@H]3O)[C@H](O)[C@H]2O)[C@H](O)[C@H]1O` [XXXG-NHCOCH2Br] was run?
Its KI (inactivation) is 1.78 ± 0.17 mM.

B1: CjGH5F (Cellvibrio japonicus Ueda107) (protein)
chain: FSVTVGGSSSGTMRNLTSVQLARLMGAGWNLGNSLEAIGSETAWGNPATTQALINAVKAAGFKTIRIPVSWSQYADANYNISSSWMARVKQVVDYAKNAGFYVIINIHWDGGWMQPTYANQAAVNSRLTKLWTQIANNFKNYDDYLLFAGTNEVMVDGDYGTPTYEYYTVQNSFNQTFVNTVRATGGNNAVRHLVVQGFNTNIDHTISFVSIPSDSASNRLMMEVHYYDPYNFTLNASSNIWQWGANATNSSATETWANETYVNTQFQRMKTRFIDNGVAVILGEFGAISRTNIPGAESYRTYWNQYITRAAYTRGLVPIYWDNGYTANNGMGLFDRYNGAQVYPNLISTIINAAQ
notes: C-terminal GH5_4 catalytic module, signal peptide and FN3 domain removed; N-terminal His6 (pET28a), E. coli
B1 was tested. Which Km (purified protein [1]; 50 mM phosphate pH 7.0, 50 °C) did it give?
Its Km is 70 ± 10 µM.

What about the kcat (purified protein [1]; 50 mM phosphate pH 7.0, 50 °C) of the same molecule?
The kcat was 2.82 ± 0.0667 s⁻¹.

What about the kcat/Km (purified protein [1]; 50 mM phosphate pH 7.0, 50 °C) of the same molecule?
The kcat/Km was 40200 ± 5830 M⁻¹ s⁻¹.

What about the Km (purified protein [2]; 50 mM phosphate pH 7.0, 50 °C) of the same molecule?
The Km was 30 ± 2 µM.

What about the kcat (purified protein [2]; 50 mM phosphate pH 7.0, 50 °C) of the same molecule?
Its kcat is 6.55 ± 0.133 s⁻¹.

And the kcat/Km (purified protein [2]; 50 mM phosphate pH 7.0, 50 °C)?
Its kcat/Km is 218000 ± 15000 M⁻¹ s⁻¹.

B2: CjGH5D (Cellvibrio japonicus Ueda107) (protein)
chain: GLYPSYNTSPAAPDSTGMQSTAVQLAGKIRLGWNIGNTMEAIGGETAWGNPMVSNELLKLVKDSGFDAVRIPVAWDQYANQESAEISAAWLNRVKQVVQMAIDNELYVLINIHWDGGWLENNITPAKKDENNAKQKAFWEQIATHLRDFDEHLLFAGTNEPNAENAEQMDVLNSYLQTFVDAVRSTGGKNAYRVLVLQGPVTDIEKTNELWTHMPADTATDRLMAEVHFYTPYNFALMRQDESWGKQFYYWGEGFLSTTDTERNPTWGEEATIDQLFDLMKTKFVDQGIPVVLGEFSAMRRTNLTGDALTLHLAGRAYYHKYVTQQALARGLLPFYWDNGGNDNFSSGIFNRQQNTVFDQQVLDALLEGAGAQ
notes: GH5_4 catalytic module, lipoprotein signal peptide and serine-rich linker removed; N-terminal His6 (pET28a), E. coli; borders 96-468 are those of the crystal model
What does the source list for B2?
Km (purified protein [1]; 50 mM phosphate pH 7.5, 50 °C): 810 ± 100 µM; kcat (purified protein [1]; 50 mM phosphate pH 7.5, 50 °C): 4.68 ± 0.2 s⁻¹; kcat/Km (purified protein [1]; 50 mM phosphate pH 7.5, 50 °C): 5780 ± 750 M⁻¹ s⁻¹; Km (purified protein [2]; 50 mM phosphate pH 7.5, 50 °C): 180 ± 20 µM; kcat (purified protein [2]; 50 mM phosphate pH 7.5, 50 °C): 2.7 ± 0.0667 s⁻¹; kcat/Km (purified protein [2]; 50 mM phosphate pH 7.5, 50 °C): 15000 ± 1720 M⁻¹ s⁻¹

B3: CjGH5E (Cellvibrio japonicus Ueda107) (protein)
chain: SSSGSSLTSVELTRLMGVGWNVGNTLDAIGGETNWGNPLITQQLISSVKAAGFKTLRVPVAWSKFTNAATFTIDPAWLNRVEQVVNYALNEDMYVMINIHWDGGWMQPTYAQQAYVNNRLSIMWTQIANHFRNYGDKLLFAGTNEVMVEGDYGTPTVEYYTVQNSFNQTFVDTVRATGGNNANRFLVVQGFNTNIDHTVNFARIPTDSASNRLLMEVHYYDPYNFTLNTSSNITQWGAIATNPAVTETWANEAYADAQFEKMRTNFINRGVGVILGEYGVVSRLNVSGHETFRVYYNQYITKSAYQRGLVPVYWDNGYSGDGGFALFDRNSGNQLYPDIIRAIVNATF
notes: GH5_4 catalytic module, signal peptide and CBM2-CBM10 removed; N-terminal His6 (pMCSG53), E. coli
For B3, which Km (purified protein [1]; 50 mM phosphate pH 7.5, 55 °C) is on record?
Its Km is 10 ± 1 µM.

And the kcat (purified protein [1]; 50 mM phosphate pH 7.5, 55 °C)?
The kcat was 4.23 ± 0.0667 s⁻¹.

And the kcat/Km (purified protein [1]; 50 mM phosphate pH 7.5, 55 °C)?
The kcat/Km was 423000 ± 43300 M⁻¹ s⁻¹.

And the Km (purified protein [3])?
The Km was 5020 ± 350 µM.

What about the kcat (purified protein [3]) of the same molecule?
The kcat was 3 ± 0.117 s⁻¹.

What about the kcat/Km (purified protein [3]) of the same molecule?
The kcat/Km was 598 ± 46.7 M⁻¹ s⁻¹.

And the Km (purified protein [2]; 50 mM phosphate pH 7.5, 55 °C)?
Its Km is 10 ± 1 µM.

What about the kcat (purified protein [2]; 50 mM phosphate pH 7.5, 55 °C) of the same molecule?
The kcat was 5.53 ± 0.15 s⁻¹.

What about the kcat/Km (purified protein [2]; 50 mM phosphate pH 7.5, 55 °C) of the same molecule?
The kcat/Km was 553000 ± 56700 M⁻¹ s⁻¹.

And the Km (purified protein [4])?
Its Km is 11800 ± 600 µM.

And the kcat (purified protein [4])?
Its kcat is 3.18 ± 0.117 s⁻¹.

And the kcat/Km (purified protein [4])?
Its kcat/Km is 270 ± 16.7 M⁻¹ s⁻¹.
